Like-named read-outs stand apart in the source and are kept apart here. Starred links: 1 amine or outer side, 2 acyl side, 3 side chain; linkers in the order of their positions; H or OH if unused. Positions of bridges follow the written chain, without caps; N, C: chain ends. Non-standard residues stand in square brackets, D forms with d. No end group written: not given here. TATA = O=C(CC[*:1])N1CN(C(=O)CC[*:2])CN(C(=O)CC[*:3])C1; Phe(4-guanidino) = N=C(N)Nc1ccc(C[C@H](N)C(=O)O)cc1; Bta = N[C@@H](Cc1csc2ccccc12)C(=O)O; hArg = N=C(N)NCCCC[C@H](N)C(=O)O; Agb = N=C(N)NCC[C@H](N)C(=O)O; hLys = NCCCCC[C@H](N)C(=O)O
Tests used:
Assay in all cases: enzyme inhibition
[1] = target: T1, human β-FXIIa (HFXIIAB; Molecular Innovations) (human, UniProt P00748 354-362; P00748 373-615)
T1 chain 1: NGPLSCGQR
T1 chain 2: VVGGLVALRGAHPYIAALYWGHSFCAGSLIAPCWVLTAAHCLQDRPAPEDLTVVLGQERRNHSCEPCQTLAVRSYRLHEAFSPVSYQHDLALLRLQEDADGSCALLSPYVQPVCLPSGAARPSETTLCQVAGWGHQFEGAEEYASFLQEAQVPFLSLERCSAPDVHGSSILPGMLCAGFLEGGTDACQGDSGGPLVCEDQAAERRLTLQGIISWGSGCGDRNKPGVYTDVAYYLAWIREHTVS

[2] = target: T1, human β-FXIIa (HFXIIAB; Molecular …)
[3] = target: T1, human β-FXIIa (HFXIIAB; Molecular …)
[4] = target: T1, human β-FXIIa (HFXIIAB; Molecular …)

B1: peptide 8 (peptide 2, Phe3 to isoleucine) (peptide)
peptide: RCIRLPCRQLRCRW-NH2
modifications: linker 2-7-12 via TATA; N-terminus assumed
SMILES: CC[C@H](C)[C@@H]1NC(=O)[C@@H](NC(=O)[C@@H](N)CCCNC(=N)N)CSCCC(=O)N2CN3CN(C2)C(=O)CCSC[C@H](NC(=O)[C@@H]2CCCN2C(=O)[C@H](CC(C)C)NC(=O)[C@H](CCCNC(=N)N)NC1=O)C(=O)N[C@@H](CCCNC(=N)N)C(=O)N[C@@H](CCC(N)=O)C(=O)N[C@@H](CC(C)C)C(=O)N[C@@H](CCCNC(=N)N)C(=O)N[C@H](C(=O)N[C@@H](CCCNC(=N)N)C(=O)N[C@@H](Cc1c[nH]c2ccccc12)C(N)=O)CSCCC3=O
Ki [1]: 2010 nM

RC[Bta]RLPCRQLRCRW-NH2 (linker 2-7-12 via TATA) [FXII618 variant with F in position three replaced by 3-benzothienylalanine]
Ki [1]: 23 nM

B2: peptide 5 (peptide 2, Phe3 to leucine) (peptide)
peptide: RCLRLPCRQLRCRW-NH2
modifications: linker 2-7-12 via TATA; N-terminus assumed
SMILES: CC(C)C[C@@H]1NC(=O)[C@H](CCC(N)=O)NC(=O)[C@H](CCCNC(=N)N)NC(=O)[C@@H]2CSCCC(=O)N3CN(CN(C3)C(=O)CCSC[C@H](NC(=O)[C@@H](N)CCCNC(=N)N)C(=O)N[C@@H](CC(C)C)C(=O)N[C@@H](CCCNC(=N)N)C(=O)N[C@@H](CC(C)C)C(=O)N3CCC[C@H]3C(=O)N2)C(=O)CCSC[C@@H](C(=O)N[C@@H](CCCNC(=N)N)C(=O)N[C@@H](Cc2c[nH]c3ccccc23)C(N)=O)NC(=O)[C@H](CCCNC(=N)N)NC1=O
Ki [1]: 70 nM

B3: peptide 26 (peptide 2, Leu10 to isoleucine) (peptide)
peptide: RCFRLPCRQIRCRW-NH2
modifications: linker 2-7-12 via TATA; N-terminus assumed
SMILES: CC[C@H](C)[C@@H]1NC(=O)[C@H](CCC(N)=O)NC(=O)[C@H](CCCNC(=N)N)NC(=O)[C@@H]2CSCCC(=O)N3CN(CN(C3)C(=O)CCSC[C@H](NC(=O)[C@@H](N)CCCNC(=N)N)C(=O)N[C@@H](Cc3ccccc3)C(=O)N[C@@H](CCCNC(=N)N)C(=O)N[C@@H](CC(C)C)C(=O)N3CCC[C@H]3C(=O)N2)C(=O)CCSC[C@@H](C(=O)N[C@@H](CCCNC(=N)N)C(=O)N[C@@H](Cc2c[nH]c3ccccc23)C(N)=O)NC(=O)[C@H](CCCNC(=N)N)NC1=O
Ki [2]: 199 nM

RCF[hArg]LPCRQLRCRW-NH2 (linker 2-7-12 via TATA) [peptide 39 (peptide 2, Arg4 to homoarginine)]
Ki [3]: 181 nM

RCF[hLys]LPCRQLRCRW-NH2 (linker 2-7-12 via TATA) [peptide 38 (peptide 2, Arg4 to homolysine)]
Ki [3]: 131 nM

B4: FXII618 variant with R in position 1 replaced by homolysine (peptide)
peptide: [hLys]CFRLPCRQLRCR-NH2
modifications: linker 2-7-12 via TATA; N-terminus assumed
SMILES: CC(C)C[C@@H]1NC(=O)[C@H](CCC(N)=O)NC(=O)[C@H](CCCNC(=N)N)NC(=O)[C@@H]2CSCCC(=O)N3CN(CN(C3)C(=O)CCSC[C@H](NC(=O)[C@@H](N)CCCCCN)C(=O)N[C@@H](Cc3ccccc3)C(=O)N[C@@H](CCCNC(=N)N)C(=O)N[C@@H](CC(C)C)C(=O)N3CCC[C@H]3C(=O)N2)C(=O)CCSC[C@@H](C(=O)N[C@@H](CCCNC(=N)N)C(N)=O)NC(=O)[C@H](CCCNC(=N)N)NC1=O
Ki [4]: 18.5 nM

RCFRLPCRQMRCR [Methionine (27), Leu10]
Ki [2]: 364 nM

H-RCF[Agb]LPCRQLRCRW-NH2 (linker 2-7-12 via TATA) [peptide 40 (peptide 2, Arg4 to norarginine)]
Ki [3]: 397 nM

B5: peptide 6 (peptide 2, Phe3 to alanine) (peptide)
peptide: RCARLPCRQLRCRW-NH2
modifications: linker 2-7-12 via TATA; N-terminus assumed
SMILES: CC(C)C[C@@H]1NC(=O)[C@H](CCC(N)=O)NC(=O)[C@H](CCCNC(=N)N)NC(=O)[C@@H]2CSCCC(=O)N3CN(CN(C3)C(=O)CCSC[C@H](NC(=O)[C@@H](N)CCCNC(=N)N)C(=O)N[C@@H](C)C(=O)N[C@@H](CCCNC(=N)N)C(=O)N[C@@H](CC(C)C)C(=O)N3CCC[C@H]3C(=O)N2)C(=O)CCSC[C@@H](C(=O)N[C@@H](CCCNC(=N)N)C(=O)N[C@@H](Cc2c[nH]c3ccccc23)C(N)=O)NC(=O)[C@H](CCCNC(=N)N)NC1=O
Ki [1]: 336 nM

B6: peptide 4 (peptide 2, Phe3 to tyrosine) (peptide)
peptide: RCYRLPCRQLRCRW-NH2
modifications: linker 2-7-12 via TATA; N-terminus assumed
SMILES: CC(C)C[C@@H]1NC(=O)[C@H](CCC(N)=O)NC(=O)[C@H](CCCNC(=N)N)NC(=O)[C@@H]2CSCCC(=O)N3CN(CN(C3)C(=O)CCSC[C@H](NC(=O)[C@@H](N)CCCNC(=N)N)C(=O)N[C@@H](Cc3ccc(O)cc3)C(=O)N[C@@H](CCCNC(=N)N)C(=O)N[C@@H](CC(C)C)C(=O)N3CCC[C@H]3C(=O)N2)C(=O)CCSC[C@@H](C(=O)N[C@@H](CCCNC(=N)N)C(=O)N[C@@H](Cc2c[nH]c3ccccc23)C(N)=O)NC(=O)[C@H](CCCNC(=N)N)NC1=O
Ki [1]: 82 nM

B7: peptide 41 (peptide 2, Arg4 to 4-guanidinophenylalanine) (peptide)
peptide: H-RCF[Phe(4-guanidino)]LPCRQLRCRW-NH2
modifications: linker 2-7-12 via TATA
SMILES: CC(C)C[C@@H]1NC(=O)[C@H](CCC(N)=O)NC(=O)[C@H](CCCNC(=N)N)NC(=O)[C@@H]2CSCCC(=O)N3CN(CN(C3)C(=O)CCSC[C@H](NC(=O)[C@@H](N)CCCNC(=N)N)C(=O)N[C@@H](Cc3ccccc3)C(=O)N[C@@H](Cc3ccc(NC(=N)N)cc3)C(=O)N[C@@H](CC(C)C)C(=O)N3CCC[C@H]3C(=O)N2)C(=O)CCSC[C@@H](C(=O)N[C@@H](CCCNC(=N)N)C(=O)N[C@@H](Cc2c[nH]c3ccccc23)C(N)=O)NC(=O)[C@H](CCCNC(=N)N)NC1=O
Ki [3]: 976 nM

RCFRLPCRQVRCR [Valine (25), Leu10]
Ki [2]: 830 nM

B8: peptide 7 (peptide 2, Phe3 to valine) (peptide)
peptide: RCVRLPCRQLRCRW-NH2
modifications: linker 2-7-12 via TATA; N-terminus assumed
SMILES: CC(C)C[C@@H]1NC(=O)[C@H](CCC(N)=O)NC(=O)[C@H](CCCNC(=N)N)NC(=O)[C@@H]2CSCCC(=O)N3CN(CN(C3)C(=O)CCSC[C@H](NC(=O)[C@@H](N)CCCNC(=N)N)C(=O)N[C@@H](C(C)C)C(=O)N[C@@H](CCCNC(=N)N)C(=O)N[C@@H](CC(C)C)C(=O)N3CCC[C@H]3C(=O)N2)C(=O)CCSC[C@@H](C(=O)N[C@@H](CCCNC(=N)N)C(=O)N[C@@H](Cc2c[nH]c3ccccc23)C(N)=O)NC(=O)[C@H](CCCNC(=N)N)NC1=O
Ki [1]: 413 nM

RCFRLPCRQARCR [Alanine (30), Leu10]
Ki [2]: 2660 nM

B9: peptide 66 (FXII618, Arg1 to alanine) (peptide)
peptide: ACFRLPCRQLRCR-NH2
modifications: linker 2-7-12 via TATA; N-terminus assumed
SMILES: CC(C)C[C@@H]1NC(=O)[C@H](CCC(N)=O)NC(=O)[C@H](CCCNC(=N)N)NC(=O)[C@@H]2CSCCC(=O)N3CN(CN(C3)C(=O)CCSC[C@@H](C(=O)N[C@@H](CCCNC(=N)N)C(N)=O)NC(=O)[C@H](CCCNC(=N)N)NC1=O)C(=O)CCSC[C@H](NC(=O)[C@H](C)N)C(=O)N[C@@H](Cc1ccccc1)C(=O)N[C@@H](CCCNC(=N)N)C(=O)N[C@@H](CC(C)C)C(=O)N1CCC[C@H]1C(=O)N2
Ki [4]: 177 nM

Reference: patent US20180118786A1 (published 2018)
